Reference: US7387779B2, “Anti-angiogenic proteins and fragments and methods of use thereof” (Beth Israel Deaconess Medical Center, priority 1998, dated 2008)

B1: Tumstatin-44-131: residues 44 to 131 of full-length Tumstatin (SEQ ID NO:33) (protein)
chain: FSFLFVQGNQRAHGQDLGTLGSCLQRFTTMPFLFCNVNDVCNFASRNDYSYWLSTPALMPMNMAPITGRALEPYISRCTVCEGPAIAI
modifications: Tumstatin-45-132 (amino acids 45-132 of SEQ ID NO10)
B2: Canstatin: NC1 domain of the α2 chain of Type IV collagen (SEQ ID NO:6) (protein, listed as Homo sapiens)
chain: VSIGYLLVKHSQTDQEPMCPVGMNKLWSGYSLLYFEGQEKAHNQDLGLAGSCLARFSTMPFLYCNPGDVCYYASRNDKSYWLSTTAPLPMMPVAEDEIKPYISRCSVCEAPAIAIAVHSQDVSIPHCPAGWRSLWIGYSFLMHTAAGDEGGGQSLVSPGSCLEDFRATPFIECNGGRGTCHYYANKYSFWLTTIPEQSFQGSPSADTLKAGLIRTHISRCQVCMKNL
B3: Tum-2: residues 1 to 132 of Tumstatin (SEQ ID NO:23) (protein)
chain: GLKGKRGDSGSPATWTTRGFVFTRHSQTTAIPSCPEGTVPLYSGFSFLFVQGNQRAHGQDLGTLGSCLQRFTTMPFLFCNVNDVCNFASRNDYSYWLSTPALMPMNMAPITGRALEPYISRCTVCEGPAIAI
modifications: Tum-2 (amino acids 1-132 of SEQ ID NO10)
B4: Tum-1: residues 54 to 244 of Tumstatin, lacking the N-terminal 53 amino acids (SEQ ID NO:22) (protein)
chain: QRAHGQDLGTLGSCLQRFTTMPFLFCNVNDVCNFASRNDYSYWLSTPALMPMNMAPITGRALEPYISRCTVCEGPAIAIAVHSQTTDIPPCPHGWISLWKGFSFIMFTSAGSEGTGQALASPGSCLEEFRASPFLECHGRGTCNYYSNSYSFWLASLNPERMFRKPIPSTVKAGELEKIISRCQVCMKKRH
modifications: Tum-1 (Tumstatin N-53) (amino acids 54-244 of SEQ ID NO10)
B5: Can-1: N-terminal 114 amino acids of full-length Canstatin (protein, listed as Homo sapiens)
chain: VSIGYLLVKHSQTDQEPMCPVGMNKLWSGYSLLYFEGQEKAHNQDLGLAGSCLARFSTMPFLYCNPGDVCYYASRNDKSYWLSTTAPLPMMPVAEDEIKPYISRCSVCEAPAIA
B6: endostatin: tumor associated angiogenesis inhibitor used as comparator (protein, UniProt P39060 1572-1754, looked up)
Endostatin: HSHRDFQPVLHLVALNSPLSGGMRGIRGADFQCFQQARAVGLAGTFRAFLSSRLQDLYSIVRRADRAAVPIVNLKDELLFPSWEALFSGSEGPLKPGARIFSFDGKDVLRHPTWPQKSVWHGSDPNGRRLTESYCETWRTEAPSATGQASSLLGGRLLGQSAASCHHAYIVLCIENSFMTASK
modifications: Endostatin
B7: Tumstatin: NC1 domain of the α3 chain of type IV collagen, residues 1-244 (SEQ ID NO:10) (protein, listed as Homo sapiens)
chain: GLKGKRGDSGSPATWTTRGFVFTRHSQTTAIPSCPEGTVPLYSGFSFLFVQGNQRAHGQDLGTLGSCLQRFTTMPFLFCNVNDVCNFASRNDYSYWLSTPALMPMNMAPITGRALEPYISRCTVCEGPAIAIAVHSQTTDIPPCPHGWISLWKGFSFIMFTSAGSEGTGQALASPGSCLEEFRASPFLECHGRGTCNYYSNSYSFWLASLNPERMFRKPIPSTVKAGELEKIISRCQVCMKKRH
B8: Tum-4: residues 181 to 244 of Tumstatin (SEQ ID NO:25) (protein)
chain: EFRASPFLECHGRGTCNYYSNSYSFWLASLNPERMFRKPIPSTVKAGELEKIISRCQVCMKKRH
modifications: Tum-4 (amino acids 181-244 of SEQ ID NO10)

Legend:
C-PAE cells = experiment: Endothelial cell proliferation, methylene blue staining; type: cell-based, bovine; conditions: for inhibition of endothelial cell proliferation by synthetic peptides: 10 μg/ml; for EC50: equimolar comparison, read-out: ED50, anti-proliferative effect; for reduction of the number of cells: 10% FBS, 5 ng/ml bFGF, 3 ng/ml VEGF, 48 hours, 5 μg/ml and higher; for inhibition of proliferation of C-PAE cells: 15 μg/ml; for Relative Cell No. (%) C-PAE: 15 μg/ml recombinant protein; for inhibition of endothelial cell proliferation, comparison with anti-αvβ3 antibody: increasing equimolar amounts
Method: A methylene blue staining test was also done. 3,100 cells were added to each well and treated as above, and cells were then counted using the method of Oliver et al. (Oliver, M. H. et al., 1989, J. Cell. Science 92:513-18). All wells were washed one time with […] of 1×PBS and the cells were fixed by adding […] of 10% formalin in neutral-buffered saline (Sigma Chemical Co., St. Louis, Mo., USA) for 30 minutes at room temperature. After formalin removal cells were stained with a solution of 1% methylene blue (Sigma Chemical Co.) in 0.01 M borate buffer (pH 8.5) for 30 minutes at room temperature. After removal of staining solution, the wells were washed 5 times with […] of 0.01 M borate buffer (pH 8.5). Methylene blue was extracted from the cells with […] of 0.1N HCi/ethanol (1:1 mixture) for 1 hour at room temperature. The amount of methylene blue staining was measured on a microplate reader (BioRad, Hercules, Calif., USA) using light absorbance at 655 nm wavelength.
In the methylene-blue staining method, 7000 cells were plated into each well of a 96-well plate, and treated as described above. Cells were then counted using the method of Oliver et al. (1989, J. Cell. Sci. 92:513-8). After 48 hours of treatment, all wells were washed with 100 μl of PBS, and the cells fixed with 10% formalin in neutral-buffered saline (Sigma Chemical Co., St. Louis, Mo., USA). The cells were then stained with 1% methylene blue (Sigma) in 0.01M borate buffer, pH 8.5. Wells were washed with 0.01M borate buffer, and the methylene blue extracted from the cells with 0.1N HCl/ethanol, and the absorbance measured in a microplate reader (Bio-Rad, Hercules, Calif., USA) at 655 nm. Polymyxin B (Sigma) at a final concentration of 5 μg/ml was used to inactivate endotoxin (Liu, S. et al., 1997, Clin. Biochem. 30:455-63).
Proliferation of endothelial cells (C-PAE cells) and WM-164 melanoma cells was assayed by methylene blue staining, as described above in Examples 25 and 34. The results are shown in FIGS. 33A and 33B, which are a pair of graphs showing the effect of increasing concentration (x-axis) of Tumstatin, Tum-1, Tum-2, Tum-3 and Tum-4 on the relative number (y-axis) of C-PAE cells (FIG. 33A) and WM-164 cells (FIG. 33B). […] Tum-4, however, did have anti-proliferative activity in this cell line. […] Only Tum-4 inhibited WM-164 melanoma cells.
For the proliferation assay, Canstatin, Can-1 and Can-2 soluble proteins (0.1-20.0 μg/ml) were added to the growth medium of proliferating C-PAE cells, which were stimulated with 10% FBS in DMEM, in addition to 5 ng/ml bFGF and 3 ng/ml VEGF. The results are shown in FIG. 40, which is a graph showing the effect of increasing concentrations of Canstatin (♦), Can-1 (▪) and Can-2 (▴) (x-axis) on the relative cell number (y-axis) of C-PAE cells. Each concentration of each protein was tested in quadruplicate. Bovine serum albumin (BSA) was used as a control treatment. Polymyxin B was used to control for endotoxin interference, and no differences were found between assays run with and without polymyxin B added to the medium. Cells were allowed to proliferate for 48 hours, and were then fixed, stained and the density read with a Bio-Rad plate reader (Bio-Rad, Hercules, Calif., USA). Canstatin and Can-1 both caused dose-dependent decreases in the percent cell number, and both reduced the number of cells by 80% at concentrations of 5 μg/ml and higher.
An endothelial cell proliferation assay was used to compare the activity of Tumstatin and some of the deletion mutants. Recombinant Tumstatin (28 kDa), Tumstatin-44-131 (12 kDa) and T3 peptide were used in a methylene blue proliferation assay in equimolar concentrations.

Caspase-3 in PC-3 cells = experiment: Caspase-3 assay; type: cell-based, human
Method: Tumstatin also altered cell morphology of C-PAE cells as monitored by phase contrast microscopy. After treating cells with 20 μg/ml of Tumstatin in the presence of 10% FCS for 24 hours on fibronectin-coated plates, the typical morphological features of apoptotic cells, membrane blebbing, cytoplasmic shrinkage, and chromatin condensation could be observed. […] Caspase-3 assay: Caspase-3 (CPP32) is an intracellular protease activated at the early stage of apoptosis, and initiates cellular breakdown by degrading structural and DNA repair proteins (Casciola-Rosen, L. et al., 1996, J. Exp. Med. 183:1957-64; Salvesen, G. S. et al., 1997, Cell 91:443-46). The protease activity of Caspase-3 was measured spectrophotometrically by detection of the chromophore (p-nitroanilide) cleaved from the labeled substrate (DEVD-pNA). C-PAE cells or PC-3 cells (0.5×10^6 per well) were plated onto a 6-well plate precoated with fibronectin (10 μg/ml) in DMEM supplemented with 10% FCS, and incubated overnight. The next day, the medium was replaced with DMEM containing 2% FCS and then incubated overnight at 37° C. Then cells were then stimulated with bFGF (3 ng/ml) in DMEM supplemented with 2% FCS, and also containing either TNF-α (80 ng/ml, positive control) or Tumstatin (10 μg/ml), and incubated for 24 hours. Controls received PBS buffer. […] Cells were counted and resuspended in cell lysis buffer (Clontech) at a concentration of 4×10^7 cells/ml. […] The absorbance was measured in a microplate reader (Bio-Rad, Hercules, Calif., USA) at 405 nm. […]
The results are shown in FIG. 53, which is a histogram showing caspase-3 activity (as measured at OD405, y-axis) of (x-axis) the control, control+DEVD-fmk, TNF-α, TNF-α+DEVD-fmk, Tumstatin-44-131 (1 μg/ml and 10 μg/ml), and Tumstatin-44-131 (10 μg/ml)+DEVD-fmk. […]
The protease activity of Caspase-3 in cells treated with T3 peptide was measured spectrophotometrically by detection of the chromophore (p-nitroanilide) cleaved from the labeled substrate (DEVD-pNA). […]

Row | Molecule | EC50 (C-PAE cells) [nM] | Caspase-3 activity in nonendothelial PC-3 cells (Caspase-3 in PC-3 cells) | inhibition of proliferation of C-PAE cells (C-PAE cells) | Relative Cell No. (%) C-PAE (C-PAE cells; 20% FCS) [%] | also measured
1 | LQRFTTMPFLFCNVNDVCNF [T3] | 2500 | no difference | – | – | inhibition of endothelial cell proliferation by synthetic peptides (C-PAE cells; 20% FCS): significantly (p<0.05) inhibit; fold less active than Tumstatin and Tumstatin-44-131 (C-PAE cells; equimolar concentrations / molar basis): 2.5 fold
2 | GLKGKRGDSGSPATWTTRGF [T1] | – | – | – | – | inhibition of endothelial cell proliferation by synthetic peptides (C-PAE cells; 20% FCS): did not inhibit endothelial cell proliferation
3 | B1 | 1000 | not observed | – | – | ED50, inhibition of proliferation (C-PAE cells; Pichia-expressed, 20% FCS): 5 µg/mL
4 | B2 | – | – | – | – | reduction of the number of cells (C-PAE cells): 80%; treatment level at which dye uptake dropped off to the level seen in unstimulated cells (C-PAE cells; 10% FCS): 0.625 to 1.25 µg/mL
5 | B3 | – | – | 73.3% | 34.3 ± 3.9 | –
6 | B4 | – | – | 65.6% | 20.5 ± 3.4 | –
7 | B5 | – | – | – | – | reduction of the number of cells (C-PAE cells): 80%
8 | B6 | – | – | – | – | inhibition of endothelial cell proliferation, comparison with anti-αvβ3 antibody (C-PAE cells): dose-dependent inhibition
9 | B7 | 1000 | no difference | 78.5% | 100.0 ± 3.2 | inhibition of endothelial cell proliferation, comparison with anti-αvβ3 antibody (C-PAE cells): dose-dependent inhibition
10 | B8 | – | – | did not inhibit | 95.7 ± 3.6 | –
